Experiments:
[1] = target: T1, hIL-13 (human, UniProt P35225 35-146, limits assumed); assay: cell-based or functional assay
[2] = target: T1, hIL-13; assay: ELISA
[3] = target: T1, hIL-13; assay: cell-based or functional assay; remark: listed apart in the source
[4] = target: T2, Recombinant Human IL-13 Protein, His Tag (Acro Cat. IL3-H52H4) (human, UniProt P35225 35-146); assay: SPR (Biacore 8K), mAb captured on Protein G chip, IL-13 as analyte
T2 construct: Bought protein; also called Hu IL-13; not shown: His Tag
T2 sequence (P35225 other isoform, or with tags, fused parts or gaps limits assumed): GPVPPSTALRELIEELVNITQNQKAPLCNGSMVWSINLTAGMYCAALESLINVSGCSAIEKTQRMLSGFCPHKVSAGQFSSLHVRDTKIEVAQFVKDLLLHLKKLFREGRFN
Description: (§1) Samples were injected in a multi-cycle manner over freshly captured mAb, by regenerating the capture surfaces with injection of glycine pH 1.5 for 30 sec at a flow rate of 30 μL/min. The data was processed and analyzed with Biacore Insight Evaluation Software Version 2.0.15.12933 (GE Healthcare) as follows. […] The responses from the two buffer blank injections were then subtracted from the reference subtracted data (2-1) to yield double-referenced data, which were fit to an 1:1 binding model to determine the apparent association (ka) and dissociation rate constants (kd). Their ratio provided the apparent equilibrium dissociation constant or affinity constant (KD=kd/ka).

[5] = target: T3, Recombinant Cynomolgus IL-13 Protein, His Tag (SINO BIOLOGICAL, Cat. 11057-C07H) (cynomolgus monkey, UniProt Q5I6E4 19-132 (Macaca thibetana entry)); assay: as above
T3 construct: also called Cyno IL-13; cynomolgus monkey IL-13
T3 chain: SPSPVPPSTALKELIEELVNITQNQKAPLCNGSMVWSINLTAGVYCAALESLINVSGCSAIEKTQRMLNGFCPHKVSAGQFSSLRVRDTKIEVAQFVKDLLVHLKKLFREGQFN
Description: as §1

[6] = target: biotinylated hIL-13 (human, UniProt P35225 35-146, limits assumed, biotinylated (site not stated)); assay: FACS; blockade of biotinylated hIL-13 (0.05 ug/mL) binding to HEK293 cells expressing hIL-13Rα1/hIL-4Rα
Sequence of biotinylated hIL-13 (P35225 other isoform, or with tags, fused parts or gaps limits assumed): as the sequence (P35225 other isoform, or with tags, fused parts or gaps limits assumed) above
Description: Briefly, HEK293 previously transduced to stably express both hIL-13Rα and hIL-4Rα were cultured and harvested. Cells were seeded at 200,000 cells in 100 uL per well. Cells were washed and the supernatant was discarded. […] The cells were stained in this mixture at 4° C. for 1 hour. […] Cells were incubated at 4° C. for 1 hour, protected from light. Cells were then washed and the median fluorescence intensity (MFI) of cells in each well were recorded by FACS using a BD FACSCanto II. Subsequent data were analyzed using GraphPad Prism.

[7] = target: T1, hIL-13; assay: cell-based or functional assay; remark: listed apart in the source

T1 sequence (P35225 other isoform, or with tags, fused parts or gaps limits assumed): as the sequence (P35225 other isoform, or with tags, fused parts or gaps limits assumed) above

B1: Construct 144 (antibody, human IgG1, kappa, L234A L235A)
heavy: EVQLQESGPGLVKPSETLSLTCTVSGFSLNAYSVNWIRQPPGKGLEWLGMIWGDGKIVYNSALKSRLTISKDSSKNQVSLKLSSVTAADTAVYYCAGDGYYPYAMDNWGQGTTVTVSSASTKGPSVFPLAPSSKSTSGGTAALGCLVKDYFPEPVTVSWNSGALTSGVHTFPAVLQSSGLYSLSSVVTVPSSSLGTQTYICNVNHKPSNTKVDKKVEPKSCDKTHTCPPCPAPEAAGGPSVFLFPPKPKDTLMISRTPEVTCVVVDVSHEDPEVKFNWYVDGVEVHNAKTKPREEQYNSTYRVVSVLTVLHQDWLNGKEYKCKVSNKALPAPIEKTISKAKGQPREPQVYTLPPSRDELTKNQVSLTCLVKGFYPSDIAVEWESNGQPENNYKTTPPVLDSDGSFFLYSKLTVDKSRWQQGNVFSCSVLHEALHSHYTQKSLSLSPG
light: DIQLTQSPSSLSASVGDRVTITCRASKSVDSYGNSFMHWYQQKPGKAPKLLIYLASELESGVPSRFSGSGSGTDFTLTISSLQPEDFATYYCQQNNEDPRTFGGGTKVEIKRTVAAPSVFIFPPSDEQLKSGTASVVCLLNNFYPREAKVQWKVDNALQSGNSQESVTEQDSKDSTYSLSSTLTLSKADYEKHKVYACEVTHQGLSSPVTKSFNRGEC
notes: also called HC1; LC6_m8
- TARC Inhibition IC50 (A549 cells) [1]: 910 pM
- Kd [2]: 14 pM
- TF-1 Proliferation Inhibition IC50 [3]: 170 pM
- Kd [4]: 26.3 pM
- Kd [5]: 228 pM
- IC50 [6]: 940 pM
- pSTAT6 Inhibition IC50 (HT-29 cells) [7]: 0.3 nM

B2: Construct 143 (antibody, human IgG4, kappa)
heavy: EVQLQESGPGLVKPSETLSLTCTVSGFSLNAYSVNWIRQPPGKGLEWLGMIWGDGKIVYNSALKSRLTISKDSSKNQVSLKLSSVTAADTAVYYCAGDGYYPYAMDNWGQGTTVTVSSASTKGPSVFPLAPCSRSTSESTAALGCLVKDYFPEPVTVSWNSGALTSGVHTFPAVLQSSGLYSLSSVVTVPSSSLGTKTYTCNVDHKPSNTKVDKRVESKYGPPCPSCPAPEFLGGPSVFLFPPKPKDTLMISRTPEVTCVVVDVSQEDPEVQFNWYVDGVEVHNAKTKPREEQFNSTYRVVSVLTVLHQDWLNGKEYKCKVSNKGLPSSIEKTISKAKGQPREPQVYTLPPSQEEMTKNQVSLTCLVKGFYPSDIAVEWESNGQPENNYKTTPPVLDSDGSFFLYSRLTVDKSRWQEGNVFSCSVLHEALHSYTQKSLSLSLGK
light: DIQLTQSPSSLSASVGDRVTITCRASKSVDSYGNSFMHWYQQKPGKAPKLLIYLASELESGVPSRFSGSGSGTDFTLTISSLQPEDFATYYCQQNNEDPRTFGGGTKVEIKRTVAAPSVFIFPPSDEQLKSGTASVVCLLNNFYPREAKVQWKVDNALQSGNSQESVTEQDSKDSTYSLSSTLTLSKADYEKHKVYACEVTHQGLSSPVTKSFNRGEC
notes: also called HC1; LC6_m8
- TARC Inhibition IC50 (A549 cells) [1]: 920 pM
- TF-1 Proliferation Inhibition IC50 [3]: 170 pM
- Kd [4]: 119 pM
- Kd [5]: 685 pM
- IC50 [6]: 740 pM
- pSTAT6 Inhibition IC50 (HT-29 cells) [7]: 0.36 nM

B3: Construct 139 (antibody, human IgG4, kappa)
heavy: EVQLLESGGGLVQPGGSLRLSCAASGFSLNAYSVNWVRQAPGKGLEWLGMIWGDGKIVYNSALKSRLTISKDSSKNTVYLQMNSLRAEDTAVYYCAGDGYYPYAMDNWGQGTTVTVSSASTKGPSVFPLAPCSRSTSESTAALGCLVKDYFPEPVTVSWNSGALTSGVHTFPAVLQSSGLYSLSSVVTVPSSSLGTKTYTCNVDHKPSNTKVDKRVESKYGPPCPSCPAPEFLGGPSVFLFPPKPKDTLMISRTPEVTCVVVDVSQEDPEVQFNWYVDGVEVHNAKTKPREEQFNSTYRVVSVLTVLHQDWLNGKEYKCKVSNKGLPSSIEKTISKAKGQPREPQVYTLPPSQEEMTKNQVSLTCLVKGFYPSDIAVEWESNGQPENNYKTTPPVLDSDGSFFLYSRLTVDKSRWQEGNVFSCSVLHEALHSYTQKSLSLSLGK
light: DIQLTQSPSSLSASVGDRVTITCRASKSVDSYGNSFMHWYQQKPGKAPKLLIYLASELESGVPSRFSGSGSGTDFTLTISSLQPEDFATYYCQQNNEDPRTFGGGTKVEIKRTVAAPSVFIFPPSDEQLKSGTASVVCLLNNFYPREAKVQWKVDNALQSGNSQESVTEQDSKDSTYSLSSTLTLSKADYEKHKVYACEVTHQGLSSPVTKSFNRGEC
notes: also called HC5; LC6_m8
- TARC Inhibition IC50 (A549 cells) [1]: 1020 pM
- TF-1 Proliferation Inhibition IC50 [3]: 200 pM
- Kd [4]: 114 pM
- Kd [5]: 705 pM
- IC50 [6]: 1090 pM
- pSTAT6 Inhibition IC50 (HT-29 cells) [7]: 0.28 nM

B4: Construct 138 (antibody, human IgG4, kappa)
heavy: EVQLLESGGGLVQPGGSLRLSCAASGFSLNAYSVNWVRQAPGKGLEWLGMIWGDGKIVYNSALKSRLTISKDSSKNTVYLQMNSLRAEDTAVYYCAGDGYYPYAMDNWGQGTTVTVSSASTKGPSVFPLAPCSRSTSESTAALGCLVKDYFPEPVTVSWNSGALTSGVHTFPAVLQSSGLYSLSSVVTVPSSSLGTKTYTCNVDHKPSNTKVDKRVESKYGPPCPSCPAPEFLGGPSVFLFPPKPKDTLYITREPEVTCVVVDVSQEDPEVQFNWYVDGVEVHNAKTKPREEQFNSTYRVVSVLTVLHQDWLNGKEYKCKVSNKGLPSSIEKTISKAKGQPREPQVYTLPPSQEEMTKNQVSLTCLVKGFYPSDIAVEWESNGQPENNYKTTPPVLDSDGSFFLYSRLTVDKSRWQEGNVFSCSVMHEALHNHYTQKSLSLSLGK
light: DIQLTQSPSSLSASVGDRVTITCRASKSVDSYGNSFMHWYQQKPGKAPKLLIYLASELESGVPSRFSGSGSGTDFTLTISSLQPEDFATYYCQQNNEDPRTFGGGTKVEIKRTVAAPSVFIFPPSDEQLKSGTASVVCLLNNFYPREAKVQWKVDNALQSGNSQESVTEQDSKDSTYSLSSTLTLSKADYEKHKVYACEVTHQGLSSPVTKSFNRGEC
notes: also called HC5; LC6_m8
- TARC Inhibition IC50 (A549 cells) [1]: 970 pM
- TF-1 Proliferation Inhibition IC50 [3]: 230 pM
- Kd [4]: 108 pM
- Kd [5]: 348 pM
- IC50 [6]: 1010 pM
- pSTAT6 Inhibition IC50 (HT-29 cells) [7]: 0.19 nM

B5: Construct 140 (antibody, human IgG1, kappa, L234A L235A)
heavy: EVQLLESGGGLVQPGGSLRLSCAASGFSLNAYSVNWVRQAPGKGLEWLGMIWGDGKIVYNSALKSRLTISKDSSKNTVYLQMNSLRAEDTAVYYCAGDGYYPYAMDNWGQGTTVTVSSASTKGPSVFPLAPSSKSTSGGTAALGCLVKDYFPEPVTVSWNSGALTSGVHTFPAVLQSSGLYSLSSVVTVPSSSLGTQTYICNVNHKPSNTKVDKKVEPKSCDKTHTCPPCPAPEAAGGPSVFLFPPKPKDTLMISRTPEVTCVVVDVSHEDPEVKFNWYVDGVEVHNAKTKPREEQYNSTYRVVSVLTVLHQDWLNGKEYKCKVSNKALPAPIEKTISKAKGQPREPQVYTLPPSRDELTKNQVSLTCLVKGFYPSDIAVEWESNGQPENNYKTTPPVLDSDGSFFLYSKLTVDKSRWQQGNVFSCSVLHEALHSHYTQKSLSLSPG
light: DIQLTQSPSSLSASVGDRVTITCRASKSVDSYGNSFMHWYQQKPGKAPKLLIYLASELESGVPSRFSGSGSGTDFTLTISSLQPEDFATYYCQQNNEDPRTFGGGTKVEIKRTVAAPSVFIFPPSDEQLKSGTASVVCLLNNFYPREAKVQWKVDNALQSGNSQESVTEQDSKDSTYSLSSTLTLSKADYEKHKVYACEVTHQGLSSPVTKSFNRGEC
notes: also called HC5; LC6_m8
- TARC Inhibition IC50 (A549 cells) [1]: 940 pM
- Kd [2]: 20 pM
- TF-1 Proliferation Inhibition IC50 [3]: 140 pM
- Kd [4]: 47.5 pM
- Kd [5]: 252 pM
- pSTAT6 Inhibition IC50 (HT-29 cells) [7]: 0.33 nM

B6: Construct 132 (antibody, human IgG1, kappa, L234A L235A)
heavy: EVQLLESGGGLVQPGGSLRLSCAASGFSLNAYSVNWVRQAPGKGLEWLGMIWGDGKIVYNSALKSRLTISKDSSKNTVYLQMNSLRAEDTAVYYCAGDGYYPYAMDNWGQGTTVTVSSASTKGPSVFPLAPSSKSTSGGTAALGCLVKDYFPEPVTVSWNSGALTSGVHTFPAVLQSSGLYSLSSVVTVPSSSLGTQTYICNVNHKPSNTKVDKKVEPKSCDKTHTCPPCPAPEAAGGPSVFLFPPKPKDTLYITREPEVTCVVVDVSHEDPEVKFNWYVDGVEVHNAKTKPREEQYNSTYRVVSVLTVLHQDWLNGKEYKCKVSNKALPAPIEKTISKAKGQPREPQVYTLPPSRDELTKNQVSLTCLVKGFYPSDIAVEWESNGQPENNYKTTPPVLDSDGSFFLYSKLTVDKSRWQQGNVFSCSVMHEALHNHYTQKSLSLSPG
light: DIQLTQSPSSLSASVGDRVTITCRASKSVDSYGNSFMHWYQQKPGKAPKLLIYLASNLESGVPSRFSGSGSGTDFTLTISSLQPEDFATYYCQQNNEDPRTFGGGTKVEIKRTVAAPSVFIFPPSDEQLKSGTASVVCLLNNFYPREAKVQWKVDNALQSGNSQESVTEQDSKDSTYSLSSTLTLSKADYEKHKVYACEVTHQGLSSPVTKSFNRGEC
notes: also called HC5; LC6
- TARC Inhibition IC50 (A549 cells) [1]: 870 pM
- TF-1 Proliferation Inhibition IC50 [3]: 130 pM
- Kd [4]: 135 pM
- Kd [5]: 331 pM
- IC50 [6]: 990 pM
- pSTAT6 Inhibition IC50 (HT-29 cells) [7]: 0.37 nM

B7: Tralokinumab (antibody, V domains shown)
VH: QVQLVQSGAEVKKPGASVKVSCKASGYTFTNYGLSWVRQAPGQGLEWMGWISANNGDTNYGQEFQGRVTMTTDTSTSTAYMELRSLRSDDTAVYYCARDSSSSWARWFFDLWGRGTLVTVSS
VL: SYVLTQPPSVSVAPGKTARITCGGNIIGSKLVHWYQQKPGQAPVLVIYDDGDRPSGIPERFSGSNSGNTATLTISRVEAGDEADYYCQVWDTGSDPVVFGGGTKLTVL
- TARC Inhibition IC50 (A549 cells) [1]: 4140 pM
- TF-1 Proliferation Inhibition IC50 [3]: 590 pM
- Kd [4]: 116 pM
- Kd [5]: 1480 pM
- pSTAT6 Inhibition IC50 (HT-29 cells) [7]: 0.41 nM

B8: Construct 128 (antibody, human IgG4, kappa)
heavy: QVTLRESGPALVKPTQTLTLTCTVSGFSLSAYSVNWIRQPPGKALEWLAMIWGDGKIVYNSALKSRLTISKDTSKNQVVLTMTNMDPVDTATYYCAGDGYYPYAMDNWGQGSLVTVSSASTKGPSVFPLAPCSRSTSESTAALGCLVKDYFPEPVTVSWNSGALTSGVHTFPAVLQSSGLYSLSSVVTVPSSSLGTKTYTCNVDHKPSNTKVDKRVESKYGPPCPSCPAPEFLGGPSVFLFPPKPKDTLYITREPEVTCVVVDVSQEDPEVQFNWYVDGVEVHNAKTKPREEQFNSTYRVVSVLTVLHQDWLNGKEYKCKVSNKGLPSSIEKTISKAKGQPREPQVYTLPPSQEEMTKNQVSLTCLVKGFYPSDIAVEWESNGQPENNYKTTPPVLDSDGSFFLYSRLTVDKSRWQEGNVFSCSVMHEALHNHYTQKSLSLSLGK
light: DIVMTQSPDSLSVSLGERATINCRASKSVDSYGNSFMHWYQQKPGQPPKLLIYLASNLESGVPDRFSGSGSGTDFTLTISSLQAEDVAVYYCQQNNEDPRTFGGGTKVEIKRTVAAPSVFIFPPSDEQLKSGTASVVCLLNNFYPREAKVQWKVDNALQSGNSQESVTEQDSKDSTYSLSSTLTLSKADYEKHKVYACEVTHQGLSSPVTKSFNRGEC
notes: also called Lebrikizumab-HC; Lebrikizumab-LC
- TARC Inhibition IC50 (A549 cells) [1]: 1010 pM
- Kd [2]: 67 pM
- TF-1 Proliferation Inhibition IC50 [3]: 200 pM
- Kd [4]: 91.5 pM
- Kd [5]: 298 pM
- IC50 [6]: 950 pM
- pSTAT6 Inhibition IC50 (HT-29 cells) [7]: 0.28 nM

Reference: patent US20250129150A1 (APOGEE THERAPEUTICS, published 2025)
